# Results from paper PMC3438978.
# Biological target: Recombinant human IgE-Fc (composed of domains Cϵ2-Cϵ4) (human)
# Assay: SPR
row,Substance,Kd
1,derCD23 D192A (from UniProt P06734 1-321) (domain or fragment),4.3 µM
2,derCD23 D236A (from UniProt P06734 1-321) (domain or fragment),5.8 µM
3,derCD23 K276A (from UniProt P06734 1-321) (domain or fragment),10.9 µM
4,derCD23 L226A (from UniProt P06734 1-321) (domain or fragment),6.6 µM
5,derCD23 R188A (from UniProt P06734 1-321) (domain or fragment),25 µM
6,derCD23 R224A (from UniProt P06734 1-321) (domain or fragment),26.2 µM
7,derCD23 Y189A (from UniProt P06734 1-321) (domain or fragment),15.6 µM

# Next, values leading:
row,Kd,Substance
1,2.3 µM,derCD23 (monomeric CD23 protein) (from UniProt P06734 156-298) (domain or fragment)
2,30.9 µM,derCD23 D227A (from UniProt P06734 1-321) (domain or fragment)
3,26.7 µM,derCD23 E257A (from UniProt P06734 1-321) (domain or fragment)
4,2.5 µM,derCD23 E265A (domain or fragment)

# Biological target: derCD23 (monomeric CD23 protein) (human) (UniProt P06734)
# UniProt P06734, sequence (P06734 156-298): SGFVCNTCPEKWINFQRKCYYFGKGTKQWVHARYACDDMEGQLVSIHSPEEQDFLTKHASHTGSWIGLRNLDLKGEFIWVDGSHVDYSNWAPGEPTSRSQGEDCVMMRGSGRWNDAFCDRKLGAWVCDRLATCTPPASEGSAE
# Assay: SPR
row,Substance,Kd
1,IgE-Fc D347A (domain or fragment),2.5 µM
2,IgE-Fc D409A (domain or fragment),26.3 µM
3,IgE-Fc K352A (domain or fragment),3.8 µM

# Continued, values first:
row,Kd,Substance
1,24.2 µM,IgE-Fc E412A (domain or fragment)
2,13.3 µM,IgE-Fc K380A (domain or fragment)
3,5 µM,IgE-Fc K435A (domain or fragment)
4,2.5 µM,IgE-Fc P439A (domain or fragment)
5,2.5 µM,IgE-Fc Q535A (domain or fragment)
6,2.4 µM,IgE-Fc Q538A (domain or fragment)
7,2.6 µM,IgE-Fc R351A (domain or fragment)
8,19.7 µM,IgE-Fc R376A (domain or fragment)
9,2.3 µM,Recombinant human IgE-Fc (composed of domains Cϵ2-Cϵ4) (domain or fragment)

# Biological target: derCD23 (monomeric CD23 protein) (human) (UniProt P06734)
# Assay: SPR
# Remark: another data set of the same source
row,Substance,Kd
1,Recombinant human IgE-Fc (composed of domains Cϵ2-Cϵ4) (domain or fragment),2.4 µM

# Biological target: Recombinant human IgE-Fc (composed of domains Cϵ2-Cϵ4) (human)
# Assay: SPR
# Remark: another data set of the same source
row,Substance,Kd
1,derCD23 (monomeric CD23 protein) (from UniProt P06734 156-298) (domain or fragment),2.3 µM
